# Measurements reported in US10876098B2, “Polynucleotide, host cell and a method to recombinantly produce the protein encoded by said polynucleotide having peroxygenative activity” (CONSEJO SUPERIOR DE INVESTIGACIONES CIENTIFICAS (CSIC), priority 2015, dated 2020).
# Tests used:
# [1] = Naphthalene transformation reaction analysed by HPLC-PDA; format: biochemical
# Description: A) Products formed after 15 minutes of reaction stopped with 20 μL of HCl 37% (PaDa-I, black bars; JaWa, grey bars). […] C) and D) Monitoring of the reaction for 270 minutes (without adding HCl) for the PaDa-I (C) and JaWa (D) mutants.
# The reactions were analysed by means of chromatography in reverse phase (HPLC). The equipment is composed by a tertiary pump (Varian-Agilent Technologies, USA) coupled to an autosampler (Merck Millipore, MA, USA); an ACE C18 PFP column was used for separation (pentafluorophenyl, 15 cm×4.6 cm) at 45° C. and detection was performed using a photodiode detector (PDA) (Varian-Agilent Technologies, USA). The mobile phase selected was 70% methanol and 30% ddH2O (in both cases with 0.1% of acetic acid) at a flow rate of 0.8 mL/min. The reaction was quantified at 268 nm (based on standard HPLCs). […] For long reaction times, the conditions used were those described earlier but without stopping the reaction with HCl. A sample of 10 μL was injected and analysed at different reaction times (from 1 to 270 minutes).
# [2] = Stability at high acetonitrile concentrations; format: physicochemical; details: 5 hours of incubation, 50% to 100% co-solvent, 20° C.; versus PaDa-I
# Description: FIG. 2 Biochemical characteristics of the variants of the invention. A) Spectroscopic characteristics of the PaDa-I (thin line) and JaWa (thick line) mutants at rest. AU, arbitrary units. B) Thermostability analysis (T50) of the PaDa-I (black circles) and JaWa (white circles) mutants. The experiments were carried out using culture supernatants and each point represents the average value and standard deviation of three individual experiments. C) Stability of the PaDa-I (black bars) and JaWa (grey bars) mutants at high acetonitrile concentrations. The stabilities were determined after 5 hours of incubation of the enzyme in increasing concentrations of the co-solvent (from 50% to 100%) at 20° C. in 10 mM pH 7.0 potassium phosphate buffer. […] The error bars indicate standard deviations.
# [3] = Dual colorimetric HTS, naphthalene-Fast Red (peroxygenase activity on microplate); format: biochemical; details: parental PaDa-I; S. cerevisiae microcultures
# Description: (§1) The mother plates were centrifuged (Eppendorf 5810R centrifuge, Germany) for 10 minutes at 3,500 RPM and 4° C. 20 μL of supernatant were transferred from these mother plates to two replica daughter plates with the help of a Freedom EVO liquid handling robot (Tecan, Switzerland).
# (§2) The plates were briefly agitated and initial absorbance was measured at 469 nm and 510 nm, respectively, using a plate reader for such purpose ([…]ax Plus 384, Molecular Devices, USA). […] The plates were kept at room temperature until they turned orange (DMP) or red (naphthol-Fast Red), at which time the absorbance was newly measured. The values were normalised against the parental of each plate. In order to rule out false positives, two re-screenings were carried out, in addition to a third re-screening wherein kinetic stability was determined (T50) (P. Molina-Espeja, et al. Appl. Environ. Microbiol. 2014. 80, 3496-3507).
# [4] = Dual colorimetric HTS, DMP (peroxidase activity on microplate); format: biochemical; details: parental PaDa-I; S. cerevisiae microcultures
# Description: as §1, §2
# [5] = 4-AAP assay with propranolol in the presence of ascorbic acid (peroxygenase activity); format: biochemical; details: 0.2 μM pure variant, 5 mM propranolol, 2 mM H2O2, with and without 4 mM ascorbic acid
# Description: FIG. 9 Assay of 4-AAP (4-aminoantipyrine) with different pure UPO variants (AaeUPO1, PaDa-1 and JaWa). […] Each reaction was performed in triplicate.
# The mother plates were centrifuged (Eppendorf 5810R centrifuge, Germany) for 10 minutes at 3,500 RPM and 4° C. 20 μL of supernatant of these mother plates were transferred to two replica daughter plates with the help of a Freedom EVO liquid-handling robot (Tecan, Switzerland).
# Without ascorbic, the plates were incubated for 30 minutes and with ascorbic for 60 minutes. […] The plates were briefly agitated and absorbance measured at 530 nm, using a plate reader for such purpose ([…]ax Plus 384, Molecular Devices, USA). The values were normalised against the parental of each plate. To rule out false positives, re-screenings were carried out, in addition to a third re-screening wherein kinetic stability was determined (T50) (P. Molina-Espeja, et al. Appl. Environ. Microbiol. 2014. 80, 3496-3507).
# [6] = Propranolol transformation reaction analysed by HPLC-PDA; format: biochemical; details: absence of ascorbic acid
# Description: FIG. 13 Chromatogram showing the enzyme reactions.
# (§3) The reactions were analysed by means of chromatography in reverse phase (HPLC). The equipment was composed of a tertiary pump (Varian-Agilent Technologies, USA) coupled to an autosampler (Merck Millipore, MA, USA); for the separation, a Zorbax Eclipse plus C18 column (15 cm×4.6 cm) at 40° C. was used and the detection was performed using a photodiode detector (PDA) (Varian, Agilent Technologies, USA). The mobile phase selected was a gradient from 10% methanol and 90% ddH2O (in both cases with 0.1% of acetic acid) up to 90% methanol and 10% ddH2O at a flow rate of 0.8 mL/min. The reaction was quantified at 280 nm (based on HPLC standards). […] The standard deviations were less than 5% in all cases.
# [7] = Total turnover number (TTN) for synthesis of 5′-hydroxypropranolol from propranolol; format: biochemical; details: 0.03 μM enzyme, propranolol, 2 mM H2O2 added every 10 minutes
# Description: FIG. 15 Calculation of the total turnover number (TTN) of AaeUPO and SoLo.
# as §3
# [8] = 15 minutes of reaction stopped with HCl
# [9] = 15 minutes of reaction stopped with HCl, 6.6 nM enzyme, 1 mM naphthalene, 1 mM H2O2
molecule,measurement,setting,value
"JaWa: PaDa-I variant with added mutations G241D and R257K, SEQ ID NO: 24 (protein) MKYFPLFPTLVYAVGVVAFPDYASLAGLSQQELDAIIPTLEAREPGLPPGPLENSSAKLVNDEAHPWKPLRPGDIRGPCPGLNTLASHGYLPRNGVATPAQIINAVQEGFNFDNQAAIFATYAAHLVDGNLITDLLSIGRKTRLTGPDPPPPASVGGLNEHGTFEGDASMTRGDAFFGNNHDFNETLFEQLVDYSNRFGGGKYNLTVAGELRFKRIQDSIATNPNFSFVDFRFFTAYGETTFPANLFVDGRRDDGQLDMDAARSFFQFSRMPDDFFRAPSPRSDTGVEVVVQAHPMQPGKNVGKINSYTVDPTSSDFSTPCLMYEKFVNITVKSLYPNPTVQLRKALNTNLDFLFQGVAAGCTQVFPYGRD","1,4-naphthoquinone (oxidation product) detected",[1]; [8],"without detectable traces of 1,4-naphthoquinone"
same,"increase in the production of 1-naphthol, more than PaDa-I",[1]; [8],156%
same,"regioselectivity, 1-naphthol",[1]; [9],92%
same,"regioselectivity, 2-naphthol",[1]; [9],8%
same,time at which formation of the epoxide intermediary reached its maximum,[1]; 270 minute reaction at pH 7.0,~40 min
same,production of 1-naphthol,[1]; 270 minutes at pH 7.0 without stopping the reaction,0.32 mM
same,"total turnover numbers (TTN), 1-naphthol",[1]; calculated using the production value of 1-naphthol after 270 minutes,"~50,000 μmoles of product/μmoles of en"
same,regioselectivity against 1-naphthol,"[1]; long reaction times, 270 minutes at pH 7.0 without stopping the reaction",97%
same,stability in the presence of acetonitrile,[2],higher stability in the presence of acetonitrile
same,peroxygenase activity on microplate relative to parental,[3],doubled that of its parental
same,peroxidase activity on microplate relative to parental,[4],reduced to half
same,activity against propranolol in 4-AAP assay among pure UPO variants,[5],greatest activity against propranolol
same,regioselectivity against 5′-hydroxypropranolol,"[6]; 0.03 μM enzyme, 4 mM propranolol, 2 mM H2O2",99%
same,amount of 5′-hydroxypropranolol produced,"[6]; compared among AaeUPO, PaDa-I, JaWa, SoLo",produce the largest amount of 5′-hydroxypropranolol
same,"TTNs, With ascorbic acid",[7]; 4 mM ascorbic acid,"48,000"
same,"TTNs, Without ascorbic acid",[7]; absence of ascorbic acid,"15,000"
